Laboratory results from patent publication US20260116963A1.

How the values were obtained:
[1] = biological target: HIS-tagged human FcRn (human) (UniProt P55899); experiment: SPR (Biacore 8K+), antibody captured on anti-human Fab CM4 chip, HIS-tagged human FcRn 9.8-5000 nM as analyte, pH 6.0, 25 C, steady-state fit
[2] = biological target: HIS-tagged human IL-13 (human) (UniProt P35225); experiment: BLI in-tandem epitope binning (Octet RH96): HIS-tagged human IL-13 on anti-penta-HIS biosensors, saturated with 200 nM AbG, then 200 nM isotype-hIgG1-YTE as competing antibody; shaded cell (non-binding, <=0.1 nm)
[3] = biological target: HIS-tagged human IL-13 (human) (UniProt P35225); experiment: BLI in-tandem epitope binning (Octet RH96): HIS-tagged human IL-13 on anti-penta-HIS biosensors, saturated with 200 nM Ref1, then 200 nM isotype-hIgG1-YTE as competing antibody; shaded cell (non-binding, <=0.1 nm)
[4] = biological target: HIS-tagged human IL-13 (human) (UniProt P35225); experiment: BLI in-tandem epitope binning (Octet RH96): HIS-tagged human IL-13 on anti-penta-HIS biosensors, saturated with 200 nM tralokinumab-hIgG1-YTE, then 200 nM isotype-hIgG1-YTE as competing antibody; shaded cell (non-binding, <=0.1 nm)
[5] = biological target: HIS-tagged human IL-13 (human) (UniProt P35225); experiment: BLI in-tandem epitope binning (Octet RH96): HIS-tagged human IL-13 on anti-penta-HIS biosensors, first exposed to 200 nM isotype-hIgG1-YTE as saturating antibody, then 200 nM isotype-hIgG1-YTE as competing antibody; shaded cell (non-binding, <=0.1 nm)

Sequence of HIS-tagged human FcRn (human) (P55899 24-297 limits assumed, chain 1 of 2): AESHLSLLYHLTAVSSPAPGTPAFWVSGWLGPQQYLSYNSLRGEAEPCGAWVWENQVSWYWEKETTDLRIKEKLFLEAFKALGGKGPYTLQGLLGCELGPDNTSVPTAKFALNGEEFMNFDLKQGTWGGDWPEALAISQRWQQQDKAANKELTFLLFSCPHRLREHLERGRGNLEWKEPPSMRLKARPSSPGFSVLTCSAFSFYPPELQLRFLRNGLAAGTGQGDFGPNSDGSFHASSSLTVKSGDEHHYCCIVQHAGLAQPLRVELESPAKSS
Sequence of HIS-tagged human FcRn (human) (chain, as listed by the source limits assumed, chain 2 of 2): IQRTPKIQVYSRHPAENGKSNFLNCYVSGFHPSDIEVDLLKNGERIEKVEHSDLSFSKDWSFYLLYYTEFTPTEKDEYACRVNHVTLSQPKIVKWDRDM
Sequence of HIS-tagged human IL-13 (human) (P35225 other isoform, or with tags, fused parts or gaps limits assumed): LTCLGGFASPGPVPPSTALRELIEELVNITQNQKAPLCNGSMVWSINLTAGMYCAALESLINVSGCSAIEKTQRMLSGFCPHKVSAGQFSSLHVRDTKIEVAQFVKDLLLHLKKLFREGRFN

Row | Substance | Kd [1] | BLI response of the competing antibody [2] | BLI response of the competing antibody [3] | BLI response of the competing antibody [4] | BLI response of the competing antibody [5]
1 | isotype-hIgG1-YTE (antibody) | 155 nM | -0.018 nm | -0.036 nm | -0.023 nm | 0 nm
2 | isotype-hIgG4 (antibody) | 1190 nM |  |  |  | 
3 | isotype-hIgG1 (antibody) | 1160 nM |  |  |  | 
4 | isotype-hIgG1-YTE-TM (antibody) | 156 nM |  |  |  | 
